The numbers were not newly measured in paper doi:10.1101/2022.06.02.22275920v1, “Glucagon/GLP-1 receptor co-agonist NNC9204-1177 reduced body weight in adults with overweight or obesity but was associated with safety issues” (medRxiv, 2022), which cites them from elsewhere.

The conditions of the series: type 2 diabetes; 1.0 mg dose level. An excerpt: Indeed, GLP-1 RAs are known to have chronotropic effects; for example, increases in pulse rate have been reported in participants with type 2 diabetes in a MAD trial with semaglutide and in trials with dulaglutide and a dual glucose-dependent insulinotropic polypeptide (GIP) and GLP-1 RA [33]. However, the increase in heart rate for NN1177 far exceeds that observed for semaglutide; for example in the SUSTAIN 6 cardiovascular outcomes trial for semaglutide in type 2 diabetes, a placebo ...

Turning to semaglutide, the “placebo-corrected heart rate increase” value is listed as 3.2 bpm.
